These results are taken from US20190284287A1 (TUSK THERAPEUTICS, published 2019).

The EC50 (read off the curve) is the midpoint of the concentration-response curve. A higher EC50 (read off the curve) goes with weaker potency.

Where only a bound is given, the exact number is not on record here.

For assay [1], the target named is T1, human CD25 expressed on cells (human, UniProt P01589 22-272).
T1 sequence: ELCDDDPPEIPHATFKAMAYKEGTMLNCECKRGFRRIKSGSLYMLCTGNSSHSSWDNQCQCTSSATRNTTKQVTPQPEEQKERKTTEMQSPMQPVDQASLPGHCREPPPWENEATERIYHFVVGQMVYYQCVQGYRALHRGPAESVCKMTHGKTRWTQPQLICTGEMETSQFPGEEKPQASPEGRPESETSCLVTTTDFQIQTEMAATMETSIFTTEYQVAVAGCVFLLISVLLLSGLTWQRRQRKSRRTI
Nature of the assay: cell-based or functional assay.

In assay [2] the target is T2, recombinant human CD25 extracellular protein sequence (rhCD25) (human, UniProt P01589 22-240).
T2 construct: also called human CD25 antigen
T2 sequence: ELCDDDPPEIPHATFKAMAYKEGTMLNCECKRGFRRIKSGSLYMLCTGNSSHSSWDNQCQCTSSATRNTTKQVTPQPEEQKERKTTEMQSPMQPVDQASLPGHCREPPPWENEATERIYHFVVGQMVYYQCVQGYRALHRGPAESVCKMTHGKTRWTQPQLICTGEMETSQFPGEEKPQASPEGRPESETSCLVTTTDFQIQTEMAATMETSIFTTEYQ
Nature of the assay: method not given; lower end of the stated range.

The target in assay [3] is T2, recombinant human CD25 extracellular …. Nature of the assay: method not given; upper end of the stated range.
Assay [4] concerns the target T3, recombinant human CD25 his tagged (human, UniProt P01589 22-240).
T3 construct: also called rhCD25-his tag; not shown: His tag
T3 sequence: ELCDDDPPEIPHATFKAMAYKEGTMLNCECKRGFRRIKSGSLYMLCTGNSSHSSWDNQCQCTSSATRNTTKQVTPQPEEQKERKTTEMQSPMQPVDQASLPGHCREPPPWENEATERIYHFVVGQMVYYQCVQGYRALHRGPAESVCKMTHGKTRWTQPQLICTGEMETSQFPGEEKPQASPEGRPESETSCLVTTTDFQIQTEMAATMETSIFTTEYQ
As to the kind of experiment: BLI, ForteBio Octet Red96; IgG on AHC sensors, rhCD25-His in solution, 1:1 fit.

The target in assay [5] is T1, human CD25 expressed on cells. Nature of the assay: flow cytometry on CD3/CD28 bead activated human Pan T cells, gated on CD4+ T cells.
Experimental: (§1) Binding to CD25 expressing activated human and Cynomolgus monkey PMBC was examined by staining test articles (anti-CD25 primary antibodies) with 20 μg/ml antibodies followed by semi-log dilution series (7-point) for 30 minutes on ice. This was followed by staining with a secondary antibody (rabbit anti-human Fcg F(ab′)2—(Jackson ImmunoResearch)) concentration of 5 μg/ml for 30 minutes on ice. All samples were stained in triplicates. To minimize cross-linking induced cell death mediated by binding of the secondary antibody, cell lines were examined in staining cohorts of 4 test articles at a time. Live lymphocytes were gated using FSC vs SSC parameters by flow cytometry during sample acquisition. Mean fluorescence intensity (MFI) of gated CD4⁺ and CD8⁺ T cell subsets were plotted on an XY chart, graphing MFI against the log of the concentration, and the data fit to a non-linear regression curve from which the EC50 was calculated.
Assay [6] has the same target. As to the kind of experiment: flow cytometry on CD3/CD28 bead activated human Pan T cells, gated on CD8+ T cells. (In flow cytometry, cells or beads pass a laser one at a time.)
Experimental: as §1
The target of assay [7] is T3, recombinant human CD25 his tagged. As to the kind of experiment: SPR, Biacore 2000; antibody captured by anti-human antibody, rhCD25-His as analyte, two state fit. A general note: In SPR one partner is held on a chip, and binding of the other changes the refractive index at the surface.
Experimental: (§2) Anti-human antibody was initially immobilised across all flow cells in analysis buffer (pH 7.4, 10 mM HEPES, 150 mM NaCl, 3 mM EDTA, 0.05% Tween 20) to an RU of between 12,000-14,000 over 10 minutes. […] Dissociation was performed in analysis buffer over 10 minutes. Regeneration steps between sample concentrations were performed in 10 mM Glycin pH1.7 for 10 minutes. A flow rate of 25 μl/min was maintained throughout the process. Kinetics data were fit using a global two state reaction conformational change analysis software provided by Biacore with reference subtraction.
Assay [8] has as its target T1, human CD25 expressed on cells. As to the kind of experiment: flow cytometry on human in vitro differentiated Treg cells, Alexa Fluor 647 anti-human IgG secondary.
Experimental: Binding to CD25 expressing in vitro differentiated Tregs was examined by staining test articles (anti-CD25 primary antibodies) with 30 μg/ml antibodies followed by semi-log dilution series (7-point) for 30 minutes on ice. […] All samples were stained in duplicates. Live cells were gated using FSC vs SSC parameters by flow cytometry during sample acquisition. Mean fluorescence intensity (MFI) of stained cells were plotted on an XY chart, graphing MFI against the log of the concentration, and the data fit to a non-linear regression curve from which the EC50 is calculated.
Assay [9] has as its target T4, inhouse produced monomeric human CD25 antigen (P1AA5872) (human, UniProt P01589 22-240, limits assumed).
T4 construct: also called Inhouse (0% dimer)
T4 sequence: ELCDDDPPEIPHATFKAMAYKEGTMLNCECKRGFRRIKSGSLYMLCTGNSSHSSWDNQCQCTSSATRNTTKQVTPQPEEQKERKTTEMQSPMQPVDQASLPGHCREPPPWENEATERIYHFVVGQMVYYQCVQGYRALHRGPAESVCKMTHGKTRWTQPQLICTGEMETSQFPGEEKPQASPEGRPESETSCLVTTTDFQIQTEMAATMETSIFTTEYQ
As to the kind of experiment: SPR, Biacore T200; antibody captured by anti-human Fab, monomeric CD25 as analyte, 1:1 Langmuir fit; column 'Binding strength'.
Experimental: (§3) Binding of CD25 antibodies to human CD25 antigen was investigated by surface plasmon resonance using a BIACORE T200 instrument (GE Healthcare).
(§4) The flow cell was set to 25° C. and the sample compartment to 12° C. The CD25 antibody was captured by injecting a 3 μg/ml solution for 60 sec at a flow rate of 10 μl/min. Association of CD25 antigen was measured by injection of human CD25 solutions for 180 sec at a flow rate of 30 μl/min starting with a concentration of 1000 nM down to 1 nM in 1:10 dilution steps. The dissociation phase was triggered by switching from sample solution injection to running buffer and monitored for up to 600 seconds. The surface was regenerated by washing with two consecutive 1-minute injections of 10mM glycine pH 2.1 (provided by the kit) at a flow rate of 10 μl/min. Bulk refractive index differences were corrected by subtracting the response obtained from an anti-human Fab reference surface; blank injections are also subtracted (=double referencing).
(§5) For calculation of KD and kinetic parameters Biacore provided fitting models were used to obtain optimal curve fitting results. The 1:1 Langmuir fit was used for P1AA5872 and the Two State Kinetic fitting for CD25 from Sino Biologicals and R&D Systems.

Assay [10] deals with T1, human CD25 expressed on cells. As to the kind of experiment: flow cytometry on Karpas 299 cells, Alexa Fluor 647 anti-human IgG Fc secondary [B); D00021 Figure 21 cont. C), D), E].
Experimental: Binding to CD25 expressing Karpas299 cells was examined by staining test articles (anti-CD25 primary antibodies) with 20 μg/ml antibodies followed by semi-log dilution series (7-point) for 30 minutes on ice. […] All samples were stained in duplicates. Live cells were gated using FSC vs SSC parameters by flow cytometry during sample acquisition. Mean fluorescence intensity (MFI) of stained cells were plotted on an XY chart, graphing MFI against the log of the concentration, and the data fit to a non-linear regression curve from which the EC50 is calculated.
The target of assay [11] is T5, human CD25 antigen, R&D Systems cat no. 223-2A/CF (~10% dimer) (human, UniProt P01589 22-240, limits assumed).
T5 construct: also called R&D Systems (~10% dimer); huCD25 (IL2R alpha)
T5 sequence: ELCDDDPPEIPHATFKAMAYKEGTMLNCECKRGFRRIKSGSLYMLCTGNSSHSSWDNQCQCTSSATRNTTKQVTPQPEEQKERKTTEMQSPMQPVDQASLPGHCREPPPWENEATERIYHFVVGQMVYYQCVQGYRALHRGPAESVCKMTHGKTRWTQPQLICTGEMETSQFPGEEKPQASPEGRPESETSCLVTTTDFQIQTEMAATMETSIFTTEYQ
As to the kind of experiment: SPR, Biacore T200; antibody captured by anti-human Fab, CD25 as analyte, Two State Reaction fit; column 'Binding strength' (affinity and/or avidity).
Experimental: as §3, §4, §5

In assay [12] the target is T6, human CD25 antigen, Sino Biologicals cat no. 10165-H08H (~20% dimer) (human, UniProt P01589 22-213).
T6 construct: Bought antigen; also called Sino biological (~20% dimer)
T6 sequence: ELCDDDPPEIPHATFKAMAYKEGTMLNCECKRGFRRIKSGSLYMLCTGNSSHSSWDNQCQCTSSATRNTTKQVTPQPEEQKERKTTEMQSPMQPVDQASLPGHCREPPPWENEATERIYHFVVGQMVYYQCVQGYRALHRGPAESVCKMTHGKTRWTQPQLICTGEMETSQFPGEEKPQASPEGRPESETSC
As to the kind of experiment: SPR, Biacore T200; antibody captured by anti-human Fab, CD25 as analyte, Two State Reaction fit; column 'Binding strength' (affinity and/or avidity); Sino Biological CD25 (~20% dimer), Two State Reaction fit; affinity and/or avidity.
Text: as §3, §5

In assay [13] the target is T3, recombinant human CD25 his tagged. Nature of the assay: SPR, Biacore 2000: IgG1 captured on an anti-human antibody CM-5 chip, rhCD25-his tag as analyte.
Experimental: as §2
The target is the same in assay [14]. The description is as above. The source holds these as a separate data set.
The target is the same in assay [15]. Described as above. This is another data set of the same source.
Assay [16] has the same target. Described as above. This is another data set of the same source.
Assay [17] has the same target. The description is as above. The source holds these as a separate data set.

B1: aCD25-a-686 (antibody, V domains shown)
VH: QVQLVQSGAEVKKPGSSVKVSCKASGGTFSSLAISWVRQAPGQGLEWMGGIIPIFGTANYAQKFQGRVTITADESTSTAYMELSSLRSEDTAVYYCARGGSVSGTLVDFDIWGQGTMVTVSS
VL: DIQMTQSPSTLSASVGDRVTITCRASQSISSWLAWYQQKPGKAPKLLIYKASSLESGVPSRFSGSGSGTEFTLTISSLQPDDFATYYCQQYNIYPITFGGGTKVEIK
notes: not shown: human IgG1 heavy chain constant region (P01857); human kappa light chain constant region (P01834)
In the case of B1, the “ADCC of iTregs by IL-2 activated NK cells: EC50” value in assay [1] is 0.21 uG/mL. For the same molecule, the Kd is not below 0.1 nM in assay [2]; not above 10 nM in assay [3]; 2.33 nM in [4]; 3.2 nM in [7]; 244 nM in assay [9]; 5.8 nM in assay [11]. Further, the Kd in assay [12] worked out at 2.5 nM. The half-maximal effective concentration (EC50 (read off the curve)) in [5] is approximately 0.4 µg/mL; in assay [6] it was approximately 0.5 µg/mL; in [8], approximately 1 µg/mL; in [10] it was approximately 0.5 µg/mL.

B2: afucosylated aCD25-a-686 (antibody, human IgG1, V domains shown)
VH: QVQLVQSGAEVKKPGSSVKVSCKASGGTFSSLAISWVRQAPGQGLEWMGGIIPIFGTANYAQKFQGRVTITADESTSTAYMELSSLRSEDTAVYYCARGGSVSGTLVDFDIWGQGTMVTVSS
VL: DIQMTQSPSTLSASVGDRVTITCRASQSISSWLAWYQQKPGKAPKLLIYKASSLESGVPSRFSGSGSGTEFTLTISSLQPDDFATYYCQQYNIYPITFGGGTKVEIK
modifications: Fc glycan afucosylated (>99% of a-fucosylation by LC/MS)
For the molecule B2, in assay [1], the “ADCC of iTregs by IL-2 activated NK cells: EC50” value was 0.01 uG/mL.

B3: aCD25-a-686-m4 (antibody, IgG1, V domains shown)
VH: QVQLVQSGAEVKKPGSSVKVSCKASGGTFSALAISWVRQAPGQGLEWMGGIIPLFGRANYAQKFQGRVTITADESTSTAYMELSSLRSEDTAVYYCARGGSVSGTLVDFDIWGQGTMVTVSS
VL: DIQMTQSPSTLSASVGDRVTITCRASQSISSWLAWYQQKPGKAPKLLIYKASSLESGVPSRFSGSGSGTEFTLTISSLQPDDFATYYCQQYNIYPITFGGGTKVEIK
Turning to B3, in assay [13], the Kd is 0.76 nM.

B4: aCD25-a-686-m3 (antibody, IgG1, V domains shown)
VH: QVQLVQSGAEVKKPGSSVKVSCKASGGTFSSLAISWVRQAPGQGLEWMGGIIPIFGDANYAQKLQGRVTMTTDTSTSTAYMELRSLRSDDTAVYYCARGGSVSGTLVDFDIWGQGTMVTVSS
VL: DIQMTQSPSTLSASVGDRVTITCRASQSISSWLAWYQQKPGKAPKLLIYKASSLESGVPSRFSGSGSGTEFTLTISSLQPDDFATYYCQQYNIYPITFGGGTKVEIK
As for B4, the Kd in [14] amounted to 0.34 nM.

B5: aCD25-a-686-m2 (antibody, IgG1, V domains shown)
VH: QVQLVQSGAEVKKPGSSVKVSCKASGGTFSSLAITWVRQAPGQGLEWMGGIIPIFGDASYAQKFQGRVTITADESTSTAYMELSSLRSEDTAVYYCARGGSVSGTLVDFDIWGQGTMVTVSS
VL: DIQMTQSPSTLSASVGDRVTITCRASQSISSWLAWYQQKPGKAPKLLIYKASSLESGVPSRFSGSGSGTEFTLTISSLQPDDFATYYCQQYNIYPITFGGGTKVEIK
B5: in assay [15], the Kd stood at 1.9 nM.

B6: aCD25-a-686-m5 (antibody, IgG1, V domains shown)
VH: QVQLVQSGAEVKKPGSSVKVSCKASGGTFSSLAIFWVRQAPGQGLEWMGGIIPVFGQANYAQKFQGRVTITVDESTSTAYMELSSLRSEDTAVYYCARGGSVSGTLVDFDIWGQGTMVTVSS
VL: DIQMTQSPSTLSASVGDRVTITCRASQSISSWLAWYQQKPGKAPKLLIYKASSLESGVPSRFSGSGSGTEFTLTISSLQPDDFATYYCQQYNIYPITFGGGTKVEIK
In the case of B6, the Kd in [16] worked out at 0.66 nM.

B7: aCD25-a-686-m1 (antibody, IgG1, V domains shown)
VH: QVQLVQSGAEVKKPGSSVKVSCKASGGTFSSLAISWVRQAPGQGLEWMGAIIPVFGTASYAQKFQGRVTITADESTSTAYMELSSLRSEDTAVYYCARGGSVSGTLVDFDIWGQGTMVTVSS
VL: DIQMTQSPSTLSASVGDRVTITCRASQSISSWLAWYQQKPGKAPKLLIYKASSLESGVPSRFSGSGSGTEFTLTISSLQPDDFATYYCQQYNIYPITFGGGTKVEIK
notes: also called aCD25-a-686-ml; aCD25-a-686ml
Take B7: in [17], the Kd was determined as 0.97 nM.
